Experimental data from article PMC6404581, “Staphylococcus aureus toxin LukSF dissociates from its membrane receptor target to enable renewed ligand sequestration” (The FASEB Journal, 2018).

T1: wild-type Staphylococcus aureus leukocidin S (Staphylococcus aureus, UniProt O80066 29-312)
T1 construct: also called S(wt); LukS; source: E. coli Rosetta-gami 2 (DE3) pLysS, purified (nickel HisTrap, Superdex 75)
T1 sequence: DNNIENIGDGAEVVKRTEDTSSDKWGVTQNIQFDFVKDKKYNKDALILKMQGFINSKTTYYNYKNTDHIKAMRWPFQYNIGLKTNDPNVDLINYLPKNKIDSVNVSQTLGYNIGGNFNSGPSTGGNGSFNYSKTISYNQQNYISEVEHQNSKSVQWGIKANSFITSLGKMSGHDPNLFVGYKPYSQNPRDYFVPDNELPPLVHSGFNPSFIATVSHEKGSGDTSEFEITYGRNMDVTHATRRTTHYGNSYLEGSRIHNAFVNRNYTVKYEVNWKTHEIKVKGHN

B1: G130D leukocidin component F (natural protein, Staphylococcus aureus)
chain: MGSQHITPVSEKKVDDKITLYKTTATSDSDKLKISQILTFNFIKDKSYDKDTLILKAAGNIYSGYTKPNPKDTISSQFYWGSKYNISINSDSNDSVNVVDYAPKNQNEEFQVQQTVGYSYGGDINISNGLSGDGNGSKSFSETINYKQESYRTSLDKRTNFKKIGWDVEAHKIMNNGWGPYGRDSYHSTYGNEMFLGSRQSNLNAGQNFLEYHKMPVLSRGNFNPEFIGVLSRKQNAAKKSKITVTYQREMDRYTNFWNQLHWIGNNYKDENRATHTSIYEVDWENHTVKLIDTQSKEKNPMSAAA
notes: cloning residues before LukF; LukF-PV, S. aureus; they already carry the D (LSGDGNG); residues from the NotI site between LukF and the C-terminal His6; also called F(G130D); LukF mutant G130D LukF; source: E. coli Rosetta-gami 2 (DE3) pLysS, purified (nickel HisTrap, Superdex 75)

Legend:
[1] = target: sortase-tagged FITC-labeled human C5a receptor, on HEK cells (human) (UniProt P21730); assay: FRET or BRET; sensitized emission FRET, fixed FITC-hC5aR cells with one Cy3-labeled toxin component alone (Cy3 mS* or only Cy3 mF*), 30 min at 4°C then 10 min at 37°C, washed, fixed, PBS
[2] = target: human C5a receptor, endogenous on human polymorphonuclear cells (human (endogenous in PMNs)) (UniProt P21730)
[3] = target: sortase-tagged FITC-labeled human C5a receptor, on HEK cells (human) (UniProt P21730); assay: FRET or BRET; sensitized emission FRET, live sortase-tagged FITC-hC5aR cells (donor) with Cy3 mS* (acceptor), 1 h at +4°C, washed, before addition of mF
[4] = target: T1, wild-type Staphylococcus aureus …; assay: flow cytometry on cells; conditions: both partners purified

sortase-tagged FITC-labeled human C5a receptor, on HEK cells (human), sequence (P21730 whole entry): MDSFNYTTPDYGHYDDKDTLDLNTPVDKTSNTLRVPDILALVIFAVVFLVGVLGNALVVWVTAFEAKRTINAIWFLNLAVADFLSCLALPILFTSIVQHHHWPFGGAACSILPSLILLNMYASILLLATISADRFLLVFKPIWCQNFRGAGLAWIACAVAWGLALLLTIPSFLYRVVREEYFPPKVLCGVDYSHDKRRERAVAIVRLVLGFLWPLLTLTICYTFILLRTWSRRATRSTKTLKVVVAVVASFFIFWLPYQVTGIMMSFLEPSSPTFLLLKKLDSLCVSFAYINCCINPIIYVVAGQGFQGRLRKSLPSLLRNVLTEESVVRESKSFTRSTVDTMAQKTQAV
human C5a receptor, endogenous on human polymorphonuclear cells (human (endogenous in PMNs)), sequence (P21730 whole entry): as above

Molecule | FRET efficiency [1] [%] | toxin concentration at which PMN permeabilization (DAPI uptake, flow cytometry, 30 min) reaches 100%; modified toxins in place of the wild-type ones [2] [nM] | FRET efficiency [3] [%] | binding result [4]
maleimide-labeled LukS-K281C-Y113H (natural protein) | 60 | 3 | 75 | –
B1 | – | – | – | binds
